Results from US20070178531A1 (BIOCHECK, published 2007).
Changes are numbered by the printed parent chain.

B1: rabbit monoclonal anti-mouse/human Id3, clone #BCH-4/#6-1 (antibody, V domains shown)
VH: QSVEESGGRLVTPGTPLTLTCTASGFSLSNVYIHWVRQAPGKGLEWIGYISDGDTARYATWAKGRFTISKTSSTTVNLKMTSLTTEDTATYFCARQGFNIWGPGTLVTVSL
VL: AVLTQTPSPVSAAVGGTVSISCQSSQSVWNNNWLSWFQQKPGQPPKLLIYETSKLESGVPSRFKGSGSGTQFTLTISDVQCDDAATYYCLGGYWTTSDNNVFGGGTEVVVK
notes: Rabbit IgG from a rabbit hybridoma; also called m/h Id3 MoAb 6-1
B2: rabbit monoclonal anti-human Id3, clone #BCH-4/#3-3 (antibody, V domains shown)
VH: QSVEESGGRLVTPGTPLTLTCTVSGIDLSSYAMSWVRQAPGKGLEWIGVIFPSNNVYYASWAKGRFTISKTSTTVDLKITSPTTEDTATYFCASMGAFDSWGPGTLVTVSS
VL: QVLTQTPSPVSAAVGGTVTINCQASQSIYNDNDLAWFQQKPGQPPKLLIYDASTLTSGVPSRFKGSGSGTQFTLTISDLDCDDAATYYCAARYSGNIYGFGGGTEVVVK
notes: Rabbit IgG from a rabbit hybridoma; also called h Id3 MoAb 3-3

Columns and labels:
Mouse Id1: Histidine [1] = target: T1, Mouse Id1: Histidine (mouse, UniProt P20067-2 1-148, limits assumed); test: ELISA, Ab 0.025 µg/ml
T1 construct: Fusion protein made in E. coli from vector pGW07; also called m-Id1-His; not shown: His tag
T1 sequence (looked up): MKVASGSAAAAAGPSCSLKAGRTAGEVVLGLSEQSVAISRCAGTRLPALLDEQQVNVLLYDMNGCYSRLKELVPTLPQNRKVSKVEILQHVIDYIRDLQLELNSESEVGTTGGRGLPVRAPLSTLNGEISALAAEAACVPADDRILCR
Procedure: (§1) 1. Dispense 100 μL of antibody diluent, diluted rabbit monoclonal human Id3, and mouse/human Id3 hybridoma supernatants into appropriate wells. […] 2. Incubate at room temperature with mechanical shaking at 750 rpm for 90 minutes. [0165] 3. Remove the incubation mixture by flicking plate content into an appropriate waste container followed by rinsing the wells 5 times with distilled water. [0166] 4. Strike the wells sharply onto absorbent paper or paper towels to remove all residual water droplets. [0167] 5. Dispense 100 μL of 1:50,000 Goat Anti-Rabbit IgG-HRP Conjugate Reagent into each well. Gently mix for 5 seconds. [0168] 6. Incubate at room temperature with mechanical shaking at 750 rpm for 90 minutes. [0169] 7. Repeat procedures 3 and 4. [0170] 8. Dispense 100 μL of TMB Reagent into each well. Gently mix for 5 seconds. [0171] 9. Incubate at room temperature with mechanical shaking at 750 rpm for 20 minutes. […] 10. Add 100 μL of Stop Solution (1N HCl) into each well. [0173] 11. Gently mix for 10 seconds to ensure a complete mixing. [0174] 12. Read optical density at A450 nm.
(§2) Cross-reactivity of rabbit monoclonal anti-mouse/human Id3 (clone #6-1) and commercial rabbit polyclonal antibody (Santa Cruz Biotechnology) were determined according to the procedures of Example 9.

Human Id1: Histidine [2] = target: T2, Human Id1: Histidine (human, UniProt P41134 1-155, limits assumed); test: ELISA, Ab 0.025 µg/ml
T2 construct: Fusion protein made in E. coli from vector pGW07; also called h-Id1: his; not shown: His tag
T2 sequence (looked up): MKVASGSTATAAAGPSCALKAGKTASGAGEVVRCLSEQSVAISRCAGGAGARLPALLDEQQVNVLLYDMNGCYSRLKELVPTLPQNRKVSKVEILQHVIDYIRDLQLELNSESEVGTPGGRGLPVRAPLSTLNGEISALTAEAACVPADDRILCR
Procedure: as §1, §2

Human Id3: Histidine = target: T3, Human Id3: Histidine (human, UniProt Q02535 1-119 at identity 1.00)); test: ELISA, Ab 0.025 µg/ml
T3 construct: Fusion protein made in E. coli from vector pGW07; also called h-Id3: His; Human Id3 (coated wells); not shown: His tag
T3 chain: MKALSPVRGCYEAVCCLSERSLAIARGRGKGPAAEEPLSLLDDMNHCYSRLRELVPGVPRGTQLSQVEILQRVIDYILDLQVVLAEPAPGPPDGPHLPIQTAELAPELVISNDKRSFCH
Procedure: as §1, §2

Human Id2: Histidine [3] = target: T4, Human Id2: Histidine (human, UniProt Q02363 1-134, limits assumed); test: ELISA, Ab 0.025 µg/ml
T4 construct: Fusion protein made in E. coli from vector pGW07; also called h-Id2: His; not shown: His tag
T4 sequence (looked up): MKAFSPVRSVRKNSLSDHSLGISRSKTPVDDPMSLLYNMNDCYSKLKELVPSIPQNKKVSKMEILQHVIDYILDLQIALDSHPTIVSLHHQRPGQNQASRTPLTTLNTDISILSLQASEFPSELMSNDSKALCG
Procedure: as §1, §2

Mouse Id3: Histidine [4] = target: T5, Mouse Id3: Histidine (mouse, UniProt P41133 1-119); test: ELISA, Ab 0.025 µg/ml
T5 construct: Fusion protein made in E. coli from vector pGW07; also called m-Id3: His; Mouse Id3 (coated wells); not shown: His tag
T5 sequence: T3 chain with G31S, A33S, A34T, A105T, N112K
Procedure: as §1, §2

Mouse Id2: Histidine [5] = target: T6, Mouse Id2: Histidine (mouse, UniProt P41136 1-134, limits assumed); test: ELISA, Ab 0.025 µg/ml
T6 construct: Fusion protein made in E. coli from vector pGW07; also called m-Id2: His; not shown: His tag
T6 sequence (looked up): T4 sequence (looked up) with S60T, A131V
Procedure: as §1, §2

Mouse Id3: Histidine [6] = target: T5, Mouse Id3: Histidine; test: ELISA, Ab 0.500 µg/ml
Mouse Id1: Histidine [7] = target: T1, Mouse Id1: Histidine; test: ELISA on coated wells, summary
Human Id1: Histidine [8] = target: T2, Human Id1: Histidine; test: ELISA on coated wells, summary
Mouse Id4: Histidine = target: T7, Mouse Id4: Histidine (mouse, UniProt P41139 1-161, limits assumed); test: ELISA on coated wells, summary
T7 construct: Fusion protein made in E. coli from vector pGW07; also called m-Id4: His; not shown: His tag
T7 sequence (looked up): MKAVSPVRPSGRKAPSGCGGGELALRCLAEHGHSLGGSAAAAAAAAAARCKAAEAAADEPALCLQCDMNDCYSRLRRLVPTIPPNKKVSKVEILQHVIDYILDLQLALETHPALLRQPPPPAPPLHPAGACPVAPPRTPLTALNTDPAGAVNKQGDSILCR

Human Id2: Histidine [9] = target: T4, Human Id2: Histidine; test: ELISA on coated wells, summary
Mouse Id2: Histidine [10] = target: T6, Mouse Id2: Histidine; test: ELISA on coated wells, summary
Human Id4: Histidine = target: T8, Human Id4: Histidine (human, UniProt P47928 1-161, limits assumed); test: ELISA on coated wells, summary
T8 construct: Fusion protein made in E. coli from vector pGW07; also called h-Id4: His; not shown: His tag
T8 sequence (looked up): T7 sequence (looked up) with L125H, A130T, V133A

Row | Binder | A450 (Mouse Id1: Histidine [1]) | A450 (Human Id1: Histidine [2]) | A450 (Human Id3: Histidine) | A450 (Human Id2: Histidine [3]) | A450 (Mouse Id3: Histidine [4]) | A450 (Mouse Id2: Histidine [5]) | A450 (Mouse Id3: Histidine [6]) | Cross-reactivity (%) (Mouse Id1: Histidine [7]) | Cross-reactivity (%) (Human Id1: Histidine [8]) | Cross-reactivity (%) (Mouse Id4: Histidine) | Cross-reactivity (%) (Human Id2: Histidine [9]) | Cross-reactivity (%) (Mouse Id2: Histidine [10]) | Cross-reactivity (%) (Human Id4: Histidine)
1 | B1 | 0.072 A450 | 0.073 A450 | 1.01 A450 | 0.088 A450 | 1.15 A450 | 0.076 A450 | 3.47 A450 |  |  |  |  |  | 
2 | B2 |  |  |  |  |  |  |  | < 1% | < 1% | < 1% | < 1% | < 1% | < 1%
